B1: CROP (parent)
chain: VFGRGDNISDVSKFLEDDKWMEE

Variants of: B1
Assay: protein stability index of a GFP-peptide fusion (GPS, HEK-293T) (PSI 1-6); higher = more stable
Conditions: c terminus: native
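Also: lentivirally expressed fusions sorted by FACS into six bins by GFP to DsRed ratio, PSI derived from sequencing read proportions per bin multiplied by bin number.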

Protein stability index: each site, then its substitutions
R4: L 1.98, M 2.77, N 2.1, P 1.51, Q 1.99, S 2.33, T 2.3, V 1.9, W 1.39, Y 2.31
G5: A 2.03, C 2.27, D 2.29, F 1.88, I 2.77, K 3.07, L 2.16, M 1.14, N 3.26, P 2.54, Q 2.3, R 1.74, S 3.13, T 2.63, V 1.61, W 2.02, Y 1.32
D6: E 2.42, G 2.08, H 1.85, I 2.48, K 2.01, L 2.91, P 2.32, Q 2.4, R 2.16, S 2.15, V 2.96, W 4.02
N7: A 1.68, C 2.37, D 2.89, E 1.4, G 1.77, H 2.12, I 2.21, L 1.42, M 1.64, P 1.35, Q 1.79, R 2.61, S 1.41, T 1.89, V 1.53, Y 1.97
I8: A 2.35, C 2.81, D 1.89, E 2.9, F 2, G 3.51, H 1.93, K 2.23, L 2.11, M 2.05, N 1.44, P 2.03, Q 2.07, R 2.92, S 2.48, T 2.62, Y 1.74
S9: A 2.31, D 2.12, E 2.44, F 1.63, G 2.06, H 2.25, I 1.97, K 1.62, L 3.1, M 2.47, N 1.78, P 3.03, Q 2.41, T 2.43, V 2.11, Y 2.3
D10: A 1.99, E 2.1, G 2.11, H 3.06, I 1.99, K 1.99, M 2.75, N 2.04, P 1.69, R 1.55, S 2.09, T 2.74, V 2.63
V11: A 2.4, C 2.35, E 2.39, F 2.15, G 2.11, H 2.43, I 2.39, K 2.6, L 1.61, M 2.95, N 2.33, P 3.27, Q 2.87, R 2.12, S 2.71, T 1.49, W 2.43, Y 1.38
S12: A 1.4, C 1.73, D 2, E 2.56, F 2.33, G 1.41, H 2.31, I 2.32, K 2.2, N 2, P 1.61, Q 2.19, R 1.92, T 2.67, V 1.86, Y 1.74
K13: A 2.29, C 1.74, D 2.83, E 2.41, F 2.04, G 2.02, H 1.71, I 2.69, M 2.69, N 1.91, P 1.14, R 1.89, S 2.65, T 1.72, V 1.54
F14: A 4.31, C 3.8, D 3.96, E 4.92, G 2.58, H 4.16, I 3.83, K 4.08, L 2.43, M 2.42, N 3.54, P 4.07, Q 3.34, R 3.29, S 4.16, T 4.42, V 3.01
